What all share (conditions): tags: Sigma; label: 32P
The target of data set [1] is T1, Glucocorticoid receptor (GR) (UniProt P04150 P04150:1-777). Kind of data set: EMSA; 20 min 25 C, 6% gel 0.5xTBE; competed by 10-fold excess unlabeled GRE and 2- to 50-fold unlabeled D-sequence, not by NS (FIG. 3B). The text has this:
(§1) In contrast, both D-sequences in the scAAV2 genomes are present in double-stranded forms. Since GR activation had no effect on the transduction efficiency for ssAAV2 vectors, it was hypothesized that the D-sequence might contain a putative GRE site. Indeed, there exists a sequence, GGTTCCT, at the end of the D-sequence, which shares partial homology to the consensus GRE site, 5'-GGTA-CANNNTGT(T/C)CT-3' (SEQ ID NO: 1) (34). The TGTTCT half-site is an essential core element which has been reported to be sufficient to relay glucocorticoid signaling (34). To experimentally test the possibility whether purified GR protein could bind to the D-sequence, electrophoretic mobility-shift assays (EMSAs) were carried out using double-stranded D-sequence oligonucleotides (D: 5'-[…]-3') (SEQ ID NO: 6). One of the conventional double-stranded GRE sequences (GRE: 5'-[…]-3') (SEQ ID NO: 13), and a non-specific (NS) sequence (NS: 5'-[…]-3') (SEQ ID NO: 10) were used as appropriate positive and negative controls, respectively. Each of the ^32P-labeled oligonucleotide probes was individually incubated with purified GR proteins for 20 minutes at 25° C. and then subjected to EMSAs. […]
Background: Mobility shift assays separate free from complexed probe on a gel.

Data set [2] concerns the target T1, Glucocorticoid receptor (GR). Kind of data set: EMSA; 20 min 25 C; unlabeled NS does not compete GRE probe (FIG. 3B lane 6).
Description: as §1

The target is the same in data set [3]. The experiment in a line: EMSA; 20 min 25 C; GR binding to GRE only slightly more efficient than to D by densitometry; unlabeled D competes GRE probe at 2- to 50-fold excess.

We go through 3 molecules from patent US10900053, “Genome-modified recombinant adeno-associated virus vectors” (University of Florida Research Foundation, Incorporated).

T1 sequence (P04150 whole entry, one chain of several): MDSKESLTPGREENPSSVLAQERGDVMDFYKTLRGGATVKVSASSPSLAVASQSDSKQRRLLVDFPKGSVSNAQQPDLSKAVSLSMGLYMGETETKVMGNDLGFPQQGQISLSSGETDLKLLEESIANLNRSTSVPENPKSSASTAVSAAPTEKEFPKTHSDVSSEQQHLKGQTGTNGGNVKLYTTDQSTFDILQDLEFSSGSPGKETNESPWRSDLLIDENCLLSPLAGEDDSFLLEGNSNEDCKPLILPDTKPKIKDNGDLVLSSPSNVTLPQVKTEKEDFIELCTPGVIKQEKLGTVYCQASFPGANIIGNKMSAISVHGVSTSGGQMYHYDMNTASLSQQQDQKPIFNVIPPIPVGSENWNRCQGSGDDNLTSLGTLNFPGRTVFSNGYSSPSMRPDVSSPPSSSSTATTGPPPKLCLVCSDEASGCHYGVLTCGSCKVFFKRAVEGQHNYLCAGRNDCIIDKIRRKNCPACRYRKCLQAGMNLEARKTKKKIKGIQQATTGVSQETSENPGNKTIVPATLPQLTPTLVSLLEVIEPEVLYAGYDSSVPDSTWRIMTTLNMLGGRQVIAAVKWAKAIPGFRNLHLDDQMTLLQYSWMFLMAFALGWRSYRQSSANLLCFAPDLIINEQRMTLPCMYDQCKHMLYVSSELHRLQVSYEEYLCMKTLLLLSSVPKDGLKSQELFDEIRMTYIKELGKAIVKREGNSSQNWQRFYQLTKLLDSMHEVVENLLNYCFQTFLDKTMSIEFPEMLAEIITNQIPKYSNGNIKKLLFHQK

B1: GRE (dsDNA)
DNA 1: CTAGGCTGTACAGGATGTTCTGCCTAG
DNA 2: CTAGGCAGAACATCCTGTACAGCCTAG
As to B1, the binding result in data set [1] is on record as “binds”.

B2: Non-specific (NS) (dsDNA)
DNA 1: TATTAGATCTGATGGCCGCT
DNA 2: AGCGGCCATCAGATCTAATA
For B2, in data set [2], the binding result is given as “no binding”.

B3: AAV2 D-sequence (D) (dsDNA)
DNA 1: CTCCATCACTAGGGGTTCCT
DNA 2: AGGAACCCCTAGTGATGGAG
On to B3, for which the binding result in data set [3] is on record as “binds”.
